Experimental data from patent US20180044393A1 (INSERM INSTITUT NATIONAL DE LA SANT ET DE LA RECHERCHE M …, published 2018).
Positions of bridges follow the written chain, without caps; N, C: chain ends. No end group written: not given here. *: point of attachment. 125I = [125I]*

Assays:
Assay in all cases: 125I-OxA binding on CHO-S cells expressing the OX1R mutant
OX1R Y124A = biological target: T1, OX1R Y124A (human, UniProt O43613 1-425)
T1 construct: site-directed mutant (TM3) stably expressed in CHO-S cells; not shown: YFP from vector pEYFP-N2 fused at the C-terminus
T1 chain: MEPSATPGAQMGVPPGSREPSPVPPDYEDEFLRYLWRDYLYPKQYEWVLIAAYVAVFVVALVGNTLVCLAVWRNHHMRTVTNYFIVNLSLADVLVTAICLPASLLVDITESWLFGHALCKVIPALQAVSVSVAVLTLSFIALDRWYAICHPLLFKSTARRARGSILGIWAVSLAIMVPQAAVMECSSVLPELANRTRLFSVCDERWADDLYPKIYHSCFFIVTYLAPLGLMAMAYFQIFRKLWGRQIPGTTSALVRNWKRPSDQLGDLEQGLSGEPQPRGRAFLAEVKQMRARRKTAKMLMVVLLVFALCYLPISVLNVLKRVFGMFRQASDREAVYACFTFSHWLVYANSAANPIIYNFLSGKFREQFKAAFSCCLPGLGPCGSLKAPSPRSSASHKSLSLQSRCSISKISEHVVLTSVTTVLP
Description: (§1) CHO—S cells expressing recombinant native or mutated OX1R were grown as previously described (El Firar et al., 2009) and maintained at 37° C. in a humidified 5% CO₂/air incubator. ¹²⁵I-orexia-A (74 TBq/mmol) was prepared as previously described (El Firar et al., 2009). […] Free peptides were removed by 2 cell washing cycles with PBS. […] Data were analyzed using the GraphPad software (http://www.graphpad.com).
(§2) All residues of OX1R fulfilling this condition were mutated to alanine by site-directed mutagenesis (Table II).

OX1R Y211A = biological target: T2, OX1R Y211A (human, UniProt O43613 1-425)
T2 construct: site-directed mutant (TM5) stably expressed in CHO-S cells; not shown: YFP from vector pEYFP-N2 fused at the C-terminus
T2 chain: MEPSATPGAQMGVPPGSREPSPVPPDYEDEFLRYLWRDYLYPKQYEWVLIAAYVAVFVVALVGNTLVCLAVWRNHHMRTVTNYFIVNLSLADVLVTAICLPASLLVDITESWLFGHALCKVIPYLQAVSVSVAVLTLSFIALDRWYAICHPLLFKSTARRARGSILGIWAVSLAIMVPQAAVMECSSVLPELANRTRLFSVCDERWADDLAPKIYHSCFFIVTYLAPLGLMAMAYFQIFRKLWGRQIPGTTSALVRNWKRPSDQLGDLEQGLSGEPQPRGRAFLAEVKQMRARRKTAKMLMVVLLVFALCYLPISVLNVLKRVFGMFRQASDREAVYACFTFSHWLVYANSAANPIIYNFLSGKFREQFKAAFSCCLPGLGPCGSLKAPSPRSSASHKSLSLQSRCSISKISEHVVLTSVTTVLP
Description: as §1, §2

OX1R K321A = biological target: T3, OX1R K321A (human, UniProt O43613 1-425)
T3 construct: site-directed mutant (TM6) stably expressed in CHO-S cells; not shown: YFP from vector pEYFP-N2 fused at the C-terminus
T3 chain: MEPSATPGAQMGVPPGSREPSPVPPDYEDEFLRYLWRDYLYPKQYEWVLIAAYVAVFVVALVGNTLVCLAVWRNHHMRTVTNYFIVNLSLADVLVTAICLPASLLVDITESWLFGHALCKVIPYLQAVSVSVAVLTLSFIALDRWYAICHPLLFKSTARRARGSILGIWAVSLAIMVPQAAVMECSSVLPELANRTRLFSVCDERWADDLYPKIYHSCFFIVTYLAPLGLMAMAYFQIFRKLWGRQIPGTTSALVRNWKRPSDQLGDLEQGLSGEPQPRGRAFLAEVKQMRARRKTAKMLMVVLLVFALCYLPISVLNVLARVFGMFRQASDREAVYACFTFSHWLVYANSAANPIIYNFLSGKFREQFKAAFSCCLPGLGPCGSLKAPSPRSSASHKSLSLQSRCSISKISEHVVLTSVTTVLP
Description: as §1, §2

OX1R N318A = biological target: T4, OX1R N318A (human, UniProt O43613 1-425)
T4 construct: site-directed mutant (TM6) stably expressed in CHO-S cells; not shown: YFP from vector pEYFP-N2 fused at the C-terminus
T4 chain: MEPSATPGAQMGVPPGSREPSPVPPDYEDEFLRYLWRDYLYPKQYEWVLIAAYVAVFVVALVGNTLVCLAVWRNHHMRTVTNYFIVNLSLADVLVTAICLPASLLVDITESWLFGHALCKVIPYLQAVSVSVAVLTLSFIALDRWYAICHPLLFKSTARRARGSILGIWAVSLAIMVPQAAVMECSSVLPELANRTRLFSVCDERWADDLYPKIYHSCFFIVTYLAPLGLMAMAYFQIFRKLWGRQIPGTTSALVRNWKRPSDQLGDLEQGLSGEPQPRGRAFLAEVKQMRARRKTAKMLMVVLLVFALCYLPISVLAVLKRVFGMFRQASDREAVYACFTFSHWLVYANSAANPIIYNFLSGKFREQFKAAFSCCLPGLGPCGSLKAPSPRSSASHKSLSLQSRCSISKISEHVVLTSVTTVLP
Description: as §1, §2

OX1R T341A = biological target: T5, OX1R T341A (human, UniProt O43613 1-425)
T5 construct: site-directed mutant (TM7) stably expressed in CHO-S cells; not shown: YFP from vector pEYFP-N2 fused at the C-terminus
T5 chain: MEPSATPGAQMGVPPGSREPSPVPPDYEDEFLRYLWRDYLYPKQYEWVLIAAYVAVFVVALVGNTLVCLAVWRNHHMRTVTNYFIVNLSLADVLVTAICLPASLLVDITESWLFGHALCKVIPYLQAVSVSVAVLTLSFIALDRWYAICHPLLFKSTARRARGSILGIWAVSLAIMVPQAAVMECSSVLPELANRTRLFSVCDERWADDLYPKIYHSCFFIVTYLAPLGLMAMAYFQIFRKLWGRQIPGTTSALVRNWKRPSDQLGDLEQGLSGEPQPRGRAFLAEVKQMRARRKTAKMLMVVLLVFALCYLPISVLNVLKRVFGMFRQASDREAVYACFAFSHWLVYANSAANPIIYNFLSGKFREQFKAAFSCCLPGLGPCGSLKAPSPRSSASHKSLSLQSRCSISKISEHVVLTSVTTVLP
Description: as §1, §2

Measured: binding result

QPLPDCCRQKTCSCRLY(125I)ELLHGAGNHAAGILTL (peptide, UniProt O43612 34-66, looked up, disulfide 6-12, 7-14; not fully specified (residue 1, C-terminus), mature; also called OxA) [125I-orexin-A]
binds: all assays above
